Laboratory results: the supplement of paper PMC12042874
± gives the uncertainty stated by the source.

Experiment: amyloid nucleation score (Sup35N fusion, yeast selection) (log enrichment); library NNK3; higher = more nucleation; inactive = no reads after selection
Method in brief: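 Plasmid inserts were Illumina-sequenced at input and output from psi-negative yeast expressing Sup35N fused to peptides of 20 random codons. The yeast were induced with 100 μM copper sulfate for 24 hours and grown 7 days at 30°C on medium lacking adenine and uracil, and sequences with under 100 input reads were excluded. Nucleation score is the DiMSum log enrichment of output over input reads, centred on the mode score of non-aggregating sequences.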

Substance | amyloid nucleation score
PISLCSWATRFCSYFDKHKL | inactive
CTCFRGSTFRNAYN | inactive
YVDPRGVTVSWMSIYSRRAL | inactive
FGHYRYEFCELSGHGMGVDA | inactive
FLCRAVRDKNHDIGLCWELR | -0.488 ± 0.8
SLYGKDYTKTVFSDAVFVCF | inactive
NLNKNRLLMTMHWNRVFLMS | inactive
IELVFAHVYCGMRWNSEASR | 1.4 ± 0.084
MPEVCDLMDHIICVCYGYID | inactive
FLKLGDSGRVYLLCFLAQVS | inactive
YVKMWHGFYFDRGNGRRDLN | inactive
MYTTDYVYRVLVSHFRVPRM | inactive
FVIFW | inactive
EYKAPREFPSTNCIHFNLMT | inactive
SRRVISEHSMEGNTID | inactive
FDLPCSYRCSMTYCYGVNGI | 1.02 ± 0.18
SKWAFPYPA | inactive
GSGHAVIEVIRRFCSEDDNK | inactive
YNCFDDNTYPYSANGSRNSL | inactive
KLKVVVIKNICFG | 1.82 ± 0.083
RVVAFHIANDLLLSLKKS | 1.39 ± 0.093
TLNIDGFIVFRTEVKGKLSY | inactive

Substance | amyloid nucleation score
VVMHAYCWLWNYSDFSIMGS | 1.57 ± 0.094
CIRGVQNTGCGAQACYPVCR | inactive
RWVICEFGR | inactive
SDLGHWHIFRYLAAIASRRK | inactive
VNIAETFSRHDPSHLWSYKS | inactive
YFPSYYVADFSSHLLMGQVY | inactive
AQGVTHLWEARNLWVWVEDQ | -0.316 ± 0.51
LRSWNMLPRWVGRYWIFGGK | inactive
GMIASDVFAHFKSGQTMGVW | inactive
TIGEKHCCWSLCIEETLVCD | inactive
RYSSNRLTLMWDCIEGGSAW | 1.03 ± 0.14
VGYVWIDRYVWRYGLC | inactive
LASNDFTDVLHWC | inactive
CECTRVCRVCPSVSMHAIK | inactive
WAGGSDPRCNFKCLCVKGFC | inactive
SFSVPVELSEP | inactive
QTHSMGDSECYL | inactive
EERRDLAPTDLTWKDFRALQ | inactive
HYWEVYLGTCLRAQDVQER | 1.57 ± 0.097
TRSCNLNTFKVDASGPPWHG | inactive
NSFDCVRDWLPLIF | inactive
RSAFYHNVGGKNRVSWSIL | inactive

Substance | amyloid nucleation score
NIIYYTTVGHVHSVW | 1.04 ± 0.18
FTIGNTA | inactive
GYDQKLES | inactive
CLFRDDRNRVDI | inactive
KFMCSNAF | inactive
LLYFSVLRSEL | inactive
VGLAVVSLLSNRRNEDELCF | inactive
NSTDRGLEFRTDHYHT | inactive
VWPNGSKKYGLSRMTANSLL | inactive
FVEISRSGLLWFDF | inactive
DLQYLMLHVHNFYICDRYQP | inactive
LNPPNKYDLDVFWVMVSYKK | inactive
SWVTVYTVMRVWVTFGNRRR | inactive
SWSFMFSFSNSATNAACLPQ | 0.327 ± 0.27
IVGLSHDAINTYLWVVVNAP | inactive
AVDLNVTLQWVCSRGRRWVF | 0.051 ± 0.3
NIWLP | inactive
QELMEKDGRASKDQAWASIV | inactive
PCLSDPSYIELNKLASVFTG | inactive
ITRWLIVLAVMYYSILSLSV | inactive
